# Earlier results, collected in publication PMC12521419.
# How the values were obtained:
# [1] = test system: LMBV virion (largemouth bass virus particle; binding protein not identified) (Largemouth bass virus (genus Ranavirus, family Iridoviridae), isolated from diseased largemouth bass, propagated in FHM cells); test: not stated for truncated form (ELASA stated for parent LA38); details: PBS, aptamers 500 nM each with LMBV in 100 uL for 1 h (temperature not stated); streptavidin beads 4 C 30 min; washes PBS + 0.1% Tween-20; SDA 37 C 30 min …
# [2] = test system: LMBV virion (largemouth bass virus particle; binding protein not identified) (Largemouth bass virus (genus Ranavirus, family Iridoviridae), isolated from diseased largemouth bass, propagated in FHM cells); test: not stated for truncated form (ELASA stated for parent LA13); details: PBS, aptamers 500 nM each with LMBV in 100 uL for 1 h (temperature not stated); streptavidin beads 4 C 30 min; washes PBS + 0.1% Tween-20; SDA 37 C 30 min …
sequence,measurement,setting,value
GCCGGCCCGGGGGATAGAGTGCTCCCGATCCCTTGGCGAAGGGAC [LA38s],Kd,[1],3.42 nM
TTTTGACGCTTTATCCTTTTCTTATGGCGGGATAGTTTCG [LA13s],Kd,[2],2.34 nM
